Patent publication CN116370651A (SHANGHAI YUANZHI BIO TECH CO LTD, dated 2023)

Molecular target: T1, 重组PSMA蛋白 (human, UniProt Q04609 44-750)
T1 construct: also called 人PSMA蛋白; 人PSMA重组蛋白
Experiment: SPR (Biacore); recombinant PSMA immobilised on CM5 chip, J591 as analyte at 0.125-4.0 μg/mL

T1 sequence (Q04609 44-750 limits assumed): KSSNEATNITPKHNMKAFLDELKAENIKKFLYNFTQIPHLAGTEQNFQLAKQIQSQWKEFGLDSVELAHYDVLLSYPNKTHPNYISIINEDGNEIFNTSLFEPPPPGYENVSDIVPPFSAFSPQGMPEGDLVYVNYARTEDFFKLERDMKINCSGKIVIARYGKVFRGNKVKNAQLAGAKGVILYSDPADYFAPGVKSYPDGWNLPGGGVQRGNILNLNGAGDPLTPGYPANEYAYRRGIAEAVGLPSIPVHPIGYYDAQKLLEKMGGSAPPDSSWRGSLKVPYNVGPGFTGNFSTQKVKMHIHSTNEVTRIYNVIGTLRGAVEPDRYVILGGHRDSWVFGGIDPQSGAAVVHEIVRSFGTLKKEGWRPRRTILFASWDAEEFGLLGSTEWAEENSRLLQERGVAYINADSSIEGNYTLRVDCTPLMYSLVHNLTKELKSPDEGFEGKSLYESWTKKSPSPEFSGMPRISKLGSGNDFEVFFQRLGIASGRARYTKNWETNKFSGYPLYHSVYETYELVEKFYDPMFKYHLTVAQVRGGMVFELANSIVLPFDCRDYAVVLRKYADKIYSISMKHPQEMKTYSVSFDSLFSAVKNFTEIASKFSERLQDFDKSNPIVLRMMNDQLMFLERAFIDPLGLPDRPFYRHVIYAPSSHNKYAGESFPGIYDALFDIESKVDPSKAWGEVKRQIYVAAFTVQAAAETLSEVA

Kd: 1.61 nM
B1: 人源化单抗J591 (antibody, V domains shown)
VH: EVQLQQSGPELKKPGTSVRISCKTSGYTFTEYTIHWVKQSHGKSLEWIGNINPNNGGTTYNQKFEDKATLTVDKSSSTAYMELRSLTSEDSAVYYCAAGWNFDYWGQGTTLTVSS
VL: DIVMTQSHKFMSTSVGDRVSIICKASQDVGTAVDWYQQKPGQSPKLLIYWASTRHTGVPDRFTGSGSGTDFTLTITNVQSEDLADYFCQQYNSYPLTFGAGTMLDLK
notes: Expressed from pcDNA3.0 in suspension host cells and purified on Protein A; also called 人源化抗体J591; J591单抗
